Laboratory results reported in paper doi:10.1101/2023.04.25.538313v1.

Substrate: O=c1ccn([C@@H]2O[C@H](CO[P@@](=O)(O)O[P@@](=O)(O)O[C@H]3O[C@H](CO)[C@@H](O)[C@H](O)[C@H]3O)[C@@H](O)[C@H]2O)c(=O)[nH]1
Assay: purified protein
Conditions: His-tagged protein in proteoliposomes

B1: CSLD3 (Arabidopsis thaliana) (protein)
chain: MASNNHFMNSRSNLSTNSDAAEAERHQQPVSNSVTFARRTPSGRYVNYSRDDLDSELGSVDLTGYSVHIPPTPDNQPMDPSISQKVEEQYVSNSLFTGGFNSVTRAHLMEKVIDTETSHPQMAGAKGSSCAVPGCDVKVMSDERGQDLLPCECDFKICRDCFMDAVKTGGMCPGCKEPYRNTDLADFADNNKQQRPMLPPPAGGSKMDRRLSLMKSTKSGLMRSQTGDFDHNRWLFETSGTYGFGNAFWTKDGNFGSDKDGNGHGMGPQDLMSRPWRPLTRKLQIPAAVISPYRLLILIRIVVLALFLMWRIKHKNPDAIWLWGMSVVCELWFALSWLLDQLPKLCPINRATDLNVLKEKFETPTPSNPTGKSDLPGLDMFVSTADPEKEPPLVTSNTILSILAADYPVEKLACYVSDDGGALLTFEAMAEAASFANMWVPFCRKHNIEPRNPDSYFSLKRDPYKNKVKADFVKDRRRVKREYDEFKVRINSLPDSIRRRSDAYHAREEIKAMKLQRQNRDEEIVEPVKIPKATWMADGTHWPGTWINSGPDHSRSDHAGIIQVMLKPPSDEPLHGVSEGFLDLTDVDIRLPLLVYVSREKRPGYDHNKKAGAMNALVRASAIMSNGPFILNLDCDHYIYNSQALREGMCFMMDRGGDRLCYVQFPQRFEGIDPSDRYANHNTVFFDVNMRALDGLMGPVYVGTGCLFRRIALYGFDPPRAKEHHPGFCSCCFSRKKKKSRVPEENRSLRMGGDSDDDEEMNLSLVPKKFGNSTFLIDSIPVAEFQGRPLADHPAVQNGRPPGALTIPRELLDASTVAEAIAVISCWYEDKTEWGSRIGWIYGSVTEDVVTGYRMHNRGWKSVYCVTKRDAFRGTAPINLTDRLHQVLRWATGSVEIFFSRNNAFFASPRMKILQRIAYLNVGIYPFTSFFLIVYCFLPALSLFSGQFIVQTLNVTFLVYLLIISITLCLLALLEIKWSGISLEEWWRNEQFWLIGGTSAHLAAVIQGLLKVVAGIEISFTLTSKSGGEDVDDEFADLYIVKWTSLMIPPITIMMVNLIAIAVGFSRTIYSVIPQWSKLIGGVFFSFWVLAHLYPFAKGLMGRRGRTPTIVYVWSGLVAITISLLWVAINPPAGSTQIGGSFTFP
Km: 62 µM
